In patent US20210230294A1 (Incyte, published 2021):
Where a chain is given by its changes, count along the chain named. In names and notes the source's numbering stands.

T1: recombinant human CD73 (SEQ ID NO:70) (human, UniProt P21589 27-549)
T1 construct: Soluble recombinant protein in normal SPR running buffer (open conformation), the soluble enzyme assay and HDX-MS; SPR stock bought from BPS Bioscience; also called rhuCD73; CD73 in the open conformation
T1 sequence: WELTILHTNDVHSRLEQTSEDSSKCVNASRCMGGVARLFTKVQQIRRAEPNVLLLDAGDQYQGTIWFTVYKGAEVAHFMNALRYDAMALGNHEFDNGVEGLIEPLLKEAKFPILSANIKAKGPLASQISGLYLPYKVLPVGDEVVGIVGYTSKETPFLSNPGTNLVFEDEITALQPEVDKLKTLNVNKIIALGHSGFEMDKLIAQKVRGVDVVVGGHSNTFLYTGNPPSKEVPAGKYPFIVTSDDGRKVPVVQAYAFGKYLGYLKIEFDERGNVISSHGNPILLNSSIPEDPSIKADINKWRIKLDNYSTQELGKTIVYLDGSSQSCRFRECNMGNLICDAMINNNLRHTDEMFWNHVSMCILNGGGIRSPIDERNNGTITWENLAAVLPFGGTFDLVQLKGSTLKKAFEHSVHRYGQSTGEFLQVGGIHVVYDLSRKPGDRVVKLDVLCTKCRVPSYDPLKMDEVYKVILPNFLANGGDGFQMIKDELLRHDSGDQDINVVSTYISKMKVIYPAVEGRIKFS

T2: human CD73 on the cell surface (MDA-MB-231 and A375 cells) (human, UniProt P21589 27-549)
T2 construct: also called cell surface CD73; cellular CD73
T2 sequence: T1 sequence

T3: cynomolgus CD73 (SEQ ID NO:72) (cynomolgus, UniProt P21589 27-549 (human entry))
T3 construct: Open conformation (normal SPR running buffer)
T3 chain: T1 sequence with M199T, T350A, V466I

T4: mouse CD73 (SEQ ID NO:71) (mouse, UniProt Q61503 29-551)
T4 construct: Open conformation (normal SPR running buffer); also called Murine; murine CD73
T4 sequence: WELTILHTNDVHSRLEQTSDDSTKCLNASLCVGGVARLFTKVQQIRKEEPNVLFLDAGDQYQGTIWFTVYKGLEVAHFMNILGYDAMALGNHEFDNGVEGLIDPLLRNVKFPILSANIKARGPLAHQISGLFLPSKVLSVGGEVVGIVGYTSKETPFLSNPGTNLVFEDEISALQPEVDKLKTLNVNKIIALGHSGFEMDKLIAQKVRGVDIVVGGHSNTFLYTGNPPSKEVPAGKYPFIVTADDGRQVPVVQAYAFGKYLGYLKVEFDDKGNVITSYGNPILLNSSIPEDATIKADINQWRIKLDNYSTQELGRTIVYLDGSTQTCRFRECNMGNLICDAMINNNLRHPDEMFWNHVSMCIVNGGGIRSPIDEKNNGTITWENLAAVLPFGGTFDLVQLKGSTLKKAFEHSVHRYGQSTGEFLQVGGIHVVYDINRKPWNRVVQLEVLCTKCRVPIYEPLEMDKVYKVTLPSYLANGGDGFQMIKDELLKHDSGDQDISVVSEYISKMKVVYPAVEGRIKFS

B1: CL25_hu_11-4 (antibody, V domains shown)
VH: QVQLVQSGAEVKKPGASVKVSCKASGYTFTSYGLSWVRQATGQGLEWMGEIYPGSGNTYYNEKFKGRVTMTANTSISTAYMELSSLRSEDTAVYYCARYDYLGSSYGFDYWGAGTTVTVSS
VL: DIQMTQSPSSLSASVGDRVTITCKASQDVSTAVAWYQQKPGKAPKLLLYSASYRYSGVPSRFSGSGSGTDYTLTISSLQPEDFATYYCQQHYNTPYTFGGGTKLEIK
notes: Humanized CL25 antibody
B2: CL25_hu_9-6 (antibody, V domains shown)
VH: B1 VH with A16S, T41P, M70I, N73D, T74E, I76T
VL: B1 VL with D1A, Q3R, L11F, V15T, L48I, Y71F, S77C, P80S
notes: Humanized CL25 antibody
B3: CL25_hu_10-4 (antibody, V domains shown)
VH: EVQLVQSGAEVKKPGESLKISCKGSGYTFTSYGLSWVRQMPGKGLEWMGEIYPGSGNTYYNEKFKGQVTISADKSISTAYLQWSSLKASDTAMYYCARYDYLGSSYGFDYWGAGTTVTVSS
VL: B1 VL
notes: Humanized CL25 antibody
B4: CL25_hu_11-5 (antibody, V domains shown)
VH: B1 VH
VL: DIVMTQSPDSLAVSLGERATINCKASQDVSTAVAWYQQKPGQPPKLLIYSASYRYSGVPDRFSGSGSGTDFTLTISSLQAEDVAVYYCQQHYNTPYTFGGGTKLEIK
notes: Humanized CL25 antibody
B5: CL25_hu_11-6 (antibody, V domains shown)
VH: B1 VH
VL: B1 VL with D1A, Q3R, L11F, V15T, L48I, Y71F, S77C, P80S
notes: Humanized CL25 antibody
B6: CL25_hu_9-4 (antibody, V domains shown)
VH: B1 VH with A16S, T41P, M70I, N73D, T74E, I76T
VL: B1 VL
notes: Humanized CL25 antibody
B7: CL25_hu_9-5 (antibody, V domains shown)
VH: B1 VH with A16S, T41P, M70I, N73D, T74E, I76T
VL: B4 VL
notes: Humanized CL25 antibody
B8: CL25_hu_8-6 (antibody, V domains shown)
VH: B1 VH with A72R
VL: B1 VL with D1A, Q3R, L11F, V15T, L48I, Y71F, S77C, P80S
notes: Humanized CL25 antibody
B9: CL25_hu_8-4 (antibody, V domains shown)
VH: B1 VH with A72R
VL: B1 VL
notes: Humanized CL25 antibody; captured by anti-human Fc in SPR
B10: CL25_hu_8-5 (antibody, V domains shown)
VH: B1 VH with A72R
VL: B4 VL
notes: Humanized CL25 antibody
B11: CL25_hu_10-6 (antibody, V domains shown)
VH: B3 VH
VL: B1 VL with D1A, Q3R, L11F, V15T, L48I, Y71F, S77C, P80S
notes: Humanized CL25 antibody
B12: HzCL25 (antibody, human IgG1, kappa, N297A, V domains shown)
VH: B3 VH
VL: DIVMTQSPDSLAVSLGERATINCKASQDVSTAVAWYQQKPGQPPKLLIYSASYRYSGVPDRFSGSGSGTDFTLTISSLQAEDVAVYYCQQHYNTPYTFGGGTKLEIKR
notes: Humanized IgG1/kappa with N297A; also called humanized CL25
B13: 3-F03 (full-length human antibody) (antibody, human IgG1, kappa, N297A)
heavy: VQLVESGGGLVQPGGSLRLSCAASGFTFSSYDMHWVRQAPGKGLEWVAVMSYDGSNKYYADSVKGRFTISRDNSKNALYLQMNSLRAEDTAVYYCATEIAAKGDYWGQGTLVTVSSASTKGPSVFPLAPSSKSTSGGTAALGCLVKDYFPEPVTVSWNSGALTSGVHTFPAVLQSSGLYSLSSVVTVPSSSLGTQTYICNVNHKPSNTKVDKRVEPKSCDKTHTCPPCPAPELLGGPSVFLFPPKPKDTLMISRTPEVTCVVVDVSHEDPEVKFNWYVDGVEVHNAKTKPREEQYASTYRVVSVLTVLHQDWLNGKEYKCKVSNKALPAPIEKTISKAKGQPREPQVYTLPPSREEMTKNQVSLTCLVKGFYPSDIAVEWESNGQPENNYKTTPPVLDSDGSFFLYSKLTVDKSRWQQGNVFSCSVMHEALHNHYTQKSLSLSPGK
light: IQMTQSPSSLSASVGDRVTITCRASQGISNYLAWYQQKPGKAPKLLIYAASTLQSGVPSRFSGSGSGTDFTLTISSLQPEDFATYYCQQSYSTPHFGQGTRLEIKRTVAAPSVFIFPPSDEQLKSGTASVVCLLNNFYPREAKVQWKVDNALQSGNSQESVTEQDSKDSTYSLSSTLTLSKADYEKHKVYACEVTHQGLSSPVTKSFNRGEC
notes: Human IgG1/kappa with N297A; also called Antibody 3-F03; Clone 3-F03
B14: 3-F03_411 (antibody, human IgG1, kappa, N297A)
heavy: not shown
light: B13 light

Tests used:
[1] = molecular target: T1, recombinant human CD73 (SEQ ID NO:70); assay: SPR (Biacore 8K), antibody captured on anti-human Fc, CD73 as analyte, open conformation
Description: (§1) The SPR running buffer (10 mM HEPES, 150 mM NaCl, 3 mM EDTA and 0.05% v/v Surfactant P20, pH 7.4) was prepared from 10×HBS-EP Buffer (GE Healthcare). Anti-human Fc antibodies (GE Healthcare) were immobilized via amine coupling on all sixteen flow cells of an S series sensor chip CM5 (GE Healthcare). The immobilization levels were ˜9000 RU for all flow cells. […] The non-cleavable ADP analogue APCP (adenosine-5′-(α,β-methylene) diphosphate) with the presence of Zn²⁺ can be used to shift the CD73 conformational equilibrium from open towards closed. Therefore, recombinant CD73 was incubated with SPR running buffer in the presence of 100 μM APCP and 10 μM ZnCl₂ (closed SPR running buffer) to study the binding of anti-CD73 antibody to the CD73 in the closed conformation. To achieve this, the ABA injection feature in Biacore 8K was used. For open conformation, the ABA injection sequence started with 60 seconds injection of running buffer. Then, CD73 3-fold serial dilution concentration series prepared from CD73 stock (BPS Bioscience) and running buffer were injected for 180 seconds immediately followed by running buffer for 240 seconds. For closed conformation, the normal SPR running buffer was replaced by closed SPR running buffer. Surface was regenerated with 30 seconds injection of 3 M MgCl₂.

[2] = molecular target: T2, human CD73 on the cell surface …; assay: flow cytometry on MDA-MB-231 cells, PE-conjugated secondary antibody, GMFI
Description: The cells were stained with the indicated concentration of antibodies for 30 minutes on ice (FIG. 2A and FIG. 2B). Next, the cells were washed and stained using goat anti-mouse secondary conjugated to phycoerythrin (PE) for 30 minutes on ice. The cells were then washed and analyzed by flow cytometry. Geometric mean fluorescence intensity (GMFI) of CD73 staining was graphed (FIG. 2A and FIG. 2B).

[3] = molecular target: T3, cynomolgus CD73 (SEQ ID NO:72); assay: SPR (Biacore 8K), antibody captured on anti-human Fc, CD73 as analyte, open conformation
Description: as §1

[4] = molecular target: T4, mouse CD73 (SEQ ID NO:71); assay: as above
Description: as §1

[5] = molecular target: T2, human CD73 on the cell surface …; assay: flow cytometry on MDA-MB-231 cells, PE-conjugated secondary antibody, GMFI; remark: listed apart in the source
[6] = molecular target: T2, human CD73 on the cell surface …; assay: flow cytometry on A375 cells, PE-conjugated secondary antibody, GMFI
[7] = molecular target: T2, human CD73 on the cell surface …; assay: flow cytometry on MDA-MB-231 cells, PE-conjugated secondary antibody, GMFI; remark: listed apart in the source
Description: Cells were stained with the indicated concentration of antibodies for 1 hour on ice. Cells were then washed and stained goat anti-mouse secondary conjugated to PE for 30 minute on ice. Cells were then washed and analyzed by flow cytometry. The GMFI of CD73 staining is graphed (FIG. 13).

Binder	Kd [1] [nM]	koff [1] [s⁻¹]	kon [1] [M⁻¹ s⁻¹]	other results
B1	2.48	0.00155	624000	EC50 (read off the curve) [2]: ~0.1 µg/mL
B2	2.25	0.000953	424000	
B3	1.2	0.00107	887000	
B4	1.46	0.00117	799000	
B5	1.84	0.00101	550000	
B6	6.9	0.00264	382000	
B7	2.02	0.00114	565000	
B8	1.55	0.00111	715000	
B9	2.29	0.00176	770000	
B10	0.718	0.000949	> 1e+06	
B11	1.75	0.00092	524000	
B12	< 0.449	0.000449	> 1e+06	Kd [3]: < 0.468 nM; koff [3]: 0.000468 s⁻¹; kon [3]: > 1e+06 M⁻¹ s⁻¹; binding result [4]: no binding
B13	0.37			Kd [3]: 0.734 nM; Kd [4]: 1.66 nM; EC50 (read off the curve) [5]: ~3 µg/mL; EC50 (read off the curve) [6]: ~0.1 µg/mL
B14				EC50 (read off the curve) [7]: ~1 µg/mL
